Like-named read-outs stand apart in the source and are kept apart here. Ends that are not written are not given here.
Tests used:
[1] = target: T1, CD22 (UniProt P20273 20-847, limits assumed); assay: cell-based or functional assay
[2] = target: T1, CD22; assay: cell-based or functional assay; remark: listed apart in the source
[3] = target: T1, CD22; assay: cell-based or functional assay; remark: listed apart in the source
[4] = target: T1, CD22; assay: cell-based or functional assay; remark: listed apart in the source
[5] = target: T1, CD22; assay: cell-based or functional assay; remark: listed apart in the source
[6] = target: T1, CD22; assay: cell-based or functional assay; remark: listed apart in the source
[7] = target: T2, anti-GCN4 (52SR4 scFv) sCAR with IgG4m hinge; assay: flow cytometry competition on CAR-T cells with the GCN4 CAR (SEQ ID NO. 74): 1 nM labelled GCN4 peptide (GCN4-AF488) as competitor, unlabelled peptide titrated, MFI of the labelled peptide read
T2 construct: disulfide dimer by western blot; also called short-dimeric sCAR; IgG4m sCAR
T2 chain: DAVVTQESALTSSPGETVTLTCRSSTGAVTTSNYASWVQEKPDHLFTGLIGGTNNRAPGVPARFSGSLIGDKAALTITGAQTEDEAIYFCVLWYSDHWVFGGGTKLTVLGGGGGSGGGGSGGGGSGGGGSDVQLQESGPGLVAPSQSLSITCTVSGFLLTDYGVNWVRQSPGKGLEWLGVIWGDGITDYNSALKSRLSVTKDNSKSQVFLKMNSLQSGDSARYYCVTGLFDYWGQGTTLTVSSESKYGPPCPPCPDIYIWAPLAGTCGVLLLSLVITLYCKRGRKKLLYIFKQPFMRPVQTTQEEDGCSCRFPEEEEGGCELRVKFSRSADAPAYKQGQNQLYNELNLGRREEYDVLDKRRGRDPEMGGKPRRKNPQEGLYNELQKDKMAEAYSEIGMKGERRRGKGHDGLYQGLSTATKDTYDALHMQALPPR
Description: Un-labelled peptide binding efficiency was indirectly shown by measuring the mean fluorescence intensity (MFI) staining with the labelled peptide.
Cells were then washed twice with cold PBS to remove the free labelled peptide before being analyzed using the BD Accuri flow cytometer.

[8] = target: T3, anti-GCN4 (52SR4 scFv) sCAR with CD8 hinge; assay: flow cytometry of CD8 sCAR T cells stained with AF488-conjugated PNE; filled histogram against a dashed control histogram
T3 construct: 273 is the protein without leader; also called sCAR (long); CD8 sCAR

[9] = target: T3, anti-GCN4 (52SR4 scFv) sCAR with CD8 …; assay: flow cytometry on CD8 sCAR-T cells, switch 30 min at 4 C, detected with PE-conjugated goat anti-human kappa chain antibody, MFI
Description: Cells were washed two times and analyzed using the Accuri flow cytometer (BD).

[10] = target: anti-Her2-FLAG switch; assay: ELISA, absorbance at 375nm, of anti-FLAG antibody 5B3 on the anti-Her2-FLAG switch; the text gives the same value as an apparent affinity of 2.2×10^-10 M
[11] = target: T3, anti-GCN4 (52SR4 scFv) sCAR with CD8 …; assay: flow cytometry on sCAR-T cells

B1: anti-CD22 (clone hLL2) Fab CTBV switch (Fab)
light: DIQLTQSPSSLSASVGDRVTMSCKSSQSVLYSANHKNYLAWYQQKPGKAPKLLIYWASTRESGVPSRFSGSGSGTDFTFTISSLQPEDIATYYCHQYLSSWTFGGGTKLEIKRTVAAPSVFIFPPSDEQLKSGTASVVCLLNNFYPREAKVQWKVDNALQSGNSQESVTEQDSKDSTYSLSSTLTLSKADYEKHKVYACEVTHQGLSSPVTKSFNRGECGGGGSNYHLENEVARLKKL
heavy: QVQLVQSGAEVKKPGSSVKVSCKASGYTFTSYWLHWVRQAPGQGLEWIGYINPRNDYTEYNQNFKDKATITADESTNTAYMELSSLRSEDTAFYFCARRDITTFYWGQGTTVTVSSARTKGPSVFPLAPSSKSTSGGTAALGCLVKDYFPEPVTVSWNSGALTSGVHTFPAVLQSSGLYSLSSVVTVPSSSLGTQTYICNVNHKPSNTKVDKKVEPKSCGGGGSNYHLENEVARLKKL
- cytotoxicity at 0.01 pM [1]: 4.6
- cytotoxicity at 0.1 pM [1]: 3.6
- cytotoxicity at 10 pM [1]: 10.4
- cytotoxicity at 100 pM [1]: 42.2
- cytotoxicity at 1000 pM [1]: 47.4
- cytotoxicity at 10000 pM [1]: 44.9
- cytotoxicity at 0.01 pM [2]: 1.34
- cytotoxicity at 0.1 pM [2]: 0.18
- cytotoxicity at 1 pM [2]: 1.38
- cytotoxicity at 10 pM [2]: 4.1
- cytotoxicity at 100 pM [2]: 28.2
- cytotoxicity at 1000 pM [2]: 46.9
- cytotoxicity at 10000 pM [2]: 44.2
- cytotoxicity at 0.06 pM [3]: -3.84
- cytotoxicity at 0.30 pM [3]: -0.28
- cytotoxicity at 1.52 pM [3]: -4.59
- cytotoxicity at 7.62 pM [3]: 0.02
- cytotoxicity at 38.10 pM [3]: 6.77
- cytotoxicity at 952.40 pM [3]: 21.7
- cytotoxicity at 4762.00 pM [3]: 24.3
- EC50 of cytotoxicity [4]: 0.0555 nM
- EC50 of cytotoxicity [5]: 0.0288 nM
- EC50 of cytotoxicity [6]: 0.0691 nM

Binder: NYHLENEVARLKKL (not fully specified, also called PNE) [yeast transcription factor GCN4 minimal binding peptide NYHLENEVARLKKL]
- binding result [7]: binds
- binding result [8]: binds

B2: anti-CD19 (FMC63) Fab LCNT switch (Fab, V domains shown)
VH: EVKLQESGPGLVAPSQSLSVTCTVSGVSLPDYGVSWIRQPPRKGLEWLGVIWGSETTYYNSALKSRLTIIKDNSKSQVFLKMNSLQTDDTAIYYCAKHYYYGGSYAMDYWGQGTSVTVSS
VL: DIQMTQTTSSLSASLGDRVTISCRASQDISKYLNWYQQKPDGTVKLLIYHTSRLHSGVPSRFSGSGSGTDYSLTISNLEQEDIATYFCQQGNTLPYTFGGGTKLEIKR
notes: also called LCNT Fab
- EC50 (read off the curve) [9]: ~2 nM

B3: anti-FLAG monoclonal antibody (clone: 5B3) (antibody, V domains shown)
VH: EVQLQQSGAELVKPGASVKLSCTASGFNIKDYYMHWVKQRTEQGLEWIGRIDPEDGETKYAPKFQGKATITADTSSKTAYLQLSSLTSEDTAVYYCARLKGGYWGQGTTLTVSS
VL: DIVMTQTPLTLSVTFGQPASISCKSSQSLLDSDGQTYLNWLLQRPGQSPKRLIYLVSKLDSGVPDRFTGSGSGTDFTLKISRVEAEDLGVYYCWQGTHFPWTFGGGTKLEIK
notes: Mouse hybridoma antibody
- EC50 [10]: 0.22 nM

B4: anti-CD19 (FMC63) IgG LCC1 switch (antibody)
light: DIQMTQTTSSLSASLGDRVTISCRASQDISKYLNWYQQKPDGTVKLLIYHTSRLHSGVPSRFSGSGSGTDYSLTISNLEQEDIATYFCQQGNTLPYTFGGGTKLEIKRTVAAPSVFIFPPSDEQLKSGTASVVCLLNNFYPREAKVQWKVDNALQSGNSQESVTEQDSGGGGSNYHLENEVARLKKLGGGGSDSTYSLSSTLTLSKADYEKHKVYACEVTHQGLSSPVTKSFNRGEC
heavy: EVKLQESGPGLVAPSQSLSVTCTVSGVSLPDYGVSWIRQPPRKGLEWLGVIWGSETTYYNSALKSRLTIIKDNSKSQVFLKMNSLQTDDTAIYYCAKHYYYGGSYAMDYWGQGTSVTVSSASTKGPSVFPLAPSSKSTSGGTAALGCLVKDYFPEPVTVSWNSGALTSGVHTFPAVLQSSGLYSLSSVVTVPSSSLGTQTYICNVNHKPSNTKVDKKVEPKSCDKTHTCPPCPAPPVAGPSVFLFPPKPKDTLMISRTPEVTCVVVDVSHEDPEVKFNWYVDGVEVHNAKTKPREEQYNSTYRVVSVLTVLHQDWLNGKEYKCKVSNKGLPSSIEKTISKAKGQPREPQVYTLPPSRDELTKNQVSLTCLVKGFYPSDIAVEWESNGQPENNYKTTPPVLDSDGSFFLYSKLTVDKSRWQQGNVFSCSVMHEALHNHYTQKSLSLSPGK
notes: also called LCC1 IgG; IgG (FcNull) switch
- binding result [11]: binds

Reference: US20190169289A1 (Scripps Research, published 2019)
